Experimental data from patent publication US8709506B2, “Synergistic compositions for the treatment of topical viral infections” (Vitro Bio Sarl, priority 2010, dated 2014).

B1: MMP-2: purified human MMP 2 (gelatinase A), AnaSpec (protein, UniProt P08253 110-660, looked up)
72 kDa type IV collagenase: YNFFPRKPKWDKNQITYRIIGYTPDLDPETVDDAFARAFQVWSDVTPLRFSRIHDGEADIMINFGRWEHGDGYPFDGKDGLLAHAFAPGTGVGGDSHFDDDELWTLGEGQVVRVKYGNADGEYCKFPFLFNGKEYNSCTDTGRSDGFLWCSTTYNFEKDGKYGFCPHEALFTMGGNAEGQPCKFPFRFQGTSYDSCTTEGRTDGYRWCGTTEDYDRDKKYGFCPETAMSTVGGNSEGAPCVFPFTFLGNKYESCTSAGRSDGKMWCATTANYDDDRKWGFCPDQGYSLFLVAAHEFGHAMGLEHSQDPGALMAPIYTYTKNFRLSQDDIKGIQELYGASPDIDLGTGPTPTLGPVTPEICKQDIVFDGIAQIRGEIFFFKDRFIWRTVTPRDKPMGPLLVATFWPELPEKIDAVYEAPQEEKAVFFAGNEYWIYSASTLERGYPKPLTSLGLPPDVQRVDAAFNWSKNKKTYIFAGDKFWRYNEVKKKMDPGFPKLIADAWNAIPDNLDAVVDLQGGGHSYFFKGAYYLKLENQSLKSVKFGSIKSDWLGC
B2: MMP-12: purified human MMP-12 (elastase), AnaSpec (protein, UniProt P39900 106-470, looked up)
Macrophage metalloelastase: GPVWRKHYITYRINNYTPDMNREDVDYAIRKAFQVWSNVTPLKFSKINTGMADILVVFARGAHGDFHAFDGKGGILAHAFGPGSGIGGDAHFDEDEFWTTHSGGTNLFLTAVHEIGHSLGLGHSSDPKAVMFPTYKYVDINTFRLSADDIRGIQSLYGDPKENQRLPNPDNSEPALCDPNLSFDAVTTVGNKIFFFKDRFFWLKVSERPKTSVNLISSLWPTLPSGIEAAYEIEARNQVFLFKDDKYWLISNLRPEPNYPKSIHSFGFPNFVKKIDAAVFNPRFYRTYFFVDNQYWRYDERRQMMDPGYPKLITKNFQGIGPKIDAVFYSKNKYYYFFQGSNQFEYDFLLQRITKTLKSNSWFGC

How the values were obtained:
herpes virus = format: cell-based; conditions: for % cell death after 72 h TCID50 herpes virus infection: protease 0.5 μg/ml, Vero cells, serum free medium, virus control 56.0 ± 2.3
influenza virus = format: cell-based; conditions: for % cell death after 72 h TCID50 influenza virus infection: protease 0.5 μg/ml, MDCK cells, serum free medium, virus control 48.21 ± 6.77

Molecule | % increase in herpes virus growth compared to controls (herpes virus) | % cell death after 72 h TCID50 herpes virus infection (herpes virus) | % increase in influenza viral growth compared to virus control (influenza virus) | % cell death after 72 h TCID50 influenza virus infection (influenza virus)
B1 | +31.43% | 73.6 ± 6.20% | +49.14% | 71.90 ± 8.21%
B2 | +19.86% | 67.12 ± 5.91% | +1.41% | 48.89 ± 4.39%
